Test results as given in the supplement of paper PMC10724198.
± gives the standard deviation of the averaged measurements.

How the values were obtained:
[1] = test system: Saccharomyces cerevisiae; test: protein stability index of tFT-peptide fusion (C-terminal peptide) (PSI (0-1 scale)); higher = more stable (slower turnover)
Method: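 MPS profiling in S. cerevisiae of the tFT-X12 degron library: putative degron peptides plus stable controls, 12 aa, fused to the C-terminus of a sfGFP-mCherry timer. Cells are FACS-sorted into 8 mCherry/sfGFP bins and deep-sequenced. PSI runs from 0 (unstable) to 1 (stable). Backgrounds are wild type, das1Δ and doa10Δ at 30 °C, and wild type, das1Δ, cdc34-1 and cdc53-1 at 37 °C; 2-3 technical replicates each.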

[2] = test system: Saccharomyces cerevisiae; test: as above; conditions: genetic background: wild type; temperature: 30 C
[3] = genetic background: cdc34-1, temperature: 37 C
[4] = genetic background: cdc53-1, temperature: 37 C
[5] = genetic background: das1 deletion, temperature: 30 C
[6] = genetic background: das1 deletion, temperature: 37 C
[7] = genetic background: doa10 deletion, temperature: 30 C
[8] = genetic background: wild type, temperature: 30 C
[9] = genetic background: wild type, temperature: 37 C
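Further: PSI is a weighted mean of sequencing reads over stability bins, variants kept only with over 10 reads, mCherry proximal and sfGFP distal, peptide attached via GGGS linker.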

Sequence	protein stability index [1, 3]	protein stability index [1, 4]	protein stability index [1, 5]	protein stability index [1, 6]	protein stability index [1, 7]	protein stability index [1, 8]	protein stability index [1, 9]	protein stability index [2]
SGLVHVLILGAC	0.4899 ± 0.0043	0.5165 ± 0.0038	0.347 ± 0.038	0.5529 ± 0.0051	0.313 ± 0.0048	0.338 ± 0.033	0.506 ± 0.011	0.45 ± 0.0019
SGRGFSFVLCTV	0.539 ± 0.039	0.599 ± 0.013	0.339 ± 0.035	0.58 ± 0.017	0.307 ± 0.013	0.339 ± 0.025	0.58 ± 0.015	0.4119 ± 2.1e-05
SGRKNQRILGLY	0.656 ± 0.1	0.7334 ± 0.0067	0.6488 ± 0.0054	0.731 ± 0.023	0.199 ± 0.029	0.221 ± 0.038	0.497 ± 0.011	0.301 ± 0.055
SLAPPPPLLILR	0.403 ± 0.049	0.325 ± 0.015	0.345 ± 0.021	0.479 ± 0.049	0.605 ± 0.0019	0.348 ± 0.025	0.4471 ± 0.0029	0.335 ± 0.022
SLARPGLCFVIA	0.534 ± 0.002	0.583 ± 0.018	0.356 ± 0.029	0.569 ± 0.011	0.311 ± 0.019	0.342 ± 0.026	0.543 ± 0.029	0.417 ± 0.034
SLASPPPLLILR	0.372 ± 0.057	0.342 ± 0.023	0.326 ± 0.032	0.436 ± 0.038	0.60698 ± 1.5e-05	0.354 ± 0.0056	0.434 ± 0.01	0.346 ± 0.023
SLFFCIPIHSVF	0.606 ± 0.046	0.585 ± 0.0079	0.491 ± 0.014	0.5855 ± 0.0036	0.398 ± 0.012	0.423 ± 0.021	0.524 ± 0.013	0.461 ± 0.014
SLIVLRSIAVLD	0.484 ± 0.015	0.505 ± 0.027	0.39 ± 0.02	0.543 ± 0.038	0.3743 ± 0.0022	0.392 ± 0.025	0.518 ± 0.013	0.449 ± 0.012
SLRYRFLSFFFL	0.615 ± 0.038	0.72 ± 0.018	0.636 ± 0.055	0.7089 ± 0.0057	0.189 ± 0.015	0.208 ± 0.019	0.338 ± 0.023	0.282 ± 0.026
SLSFLRPLLLIF	0.0444 ± 0.014	0.0385 ± 0.012	0.12 ± 0.028	0.118 ± 0.0077	0.131 ± 0.0095	0.0702 ± 0.013	0.0953 ± 0.019	0.102 ± 0.012
SLTNYQRLIHVC	0.147 ± 0.037	0.245 ± 0.064	0.223 ± 0.031	0.361 ± 0.014	0.0969 ± 0.0057	0.126 ± 0.036	0.0936 ± 0.0094	0.258 ± 0.13
SLVLLVASVTGS	0.507 ± 0.0053	0.546 ± 0.013	0.385 ± 0.024	0.5781 ± 0.0054	0.347 ± 0.01	0.384 ± 0.03	0.553 ± 0.017	0.464 ± 0.016
SMFFLFFFFFFF	0.396 ± 0.0071	0.356 ± 0.018	0.35 ± 0.042	0.444 ± 0.034	0.432 ± 0.028	0.328 ± 0.017	0.4177 ± 0.0027	0.36 ± 0.04
SNFQLLPLFKNI	0.791 ± 0.12	0.789 ± 0.0083	0.651 ± 0.044	0.799 ± 0.027	0.182 ± 0.0062	0.216 ± 0.041	0.546 ± 0.056	0.39 ± 0.032
SPRGVVIAFLVC	0.425 ± 0.016	0.569 ± 0.089	0.356 ± 0.028	0.5766 ± 0.0025	0.11 ± 0.014	0.124 ± 0.025	0.109 ± 0.0082	0.129 ± 0.057
SQIALIQYFHIL	0.408 ± 0.02	0.655 ± 0.017	0.594 ± 0.015	0.704 ± 0.016	0.0937 ± 0.022	0.1 ± 0.017	0.202 ± 0.029	0.101 ± 0.06
SQVILFFLSLCR	0.607 ± 0.024	0.654 ± 0.011	0.494 ± 0.024	0.619 ± 0.0082	0.485 ± 0.011	0.4977 ± 0.0029	0.61 ± 0.022	0.552 ± 0.08
SRICRTIIQLKQ	0.561 ± 0.025	0.681 ± 0.013	0.626 ± 0.029	0.689 ± 0.033	0.107 ± 0.0018	0.121 ± 0.022	0.266 ± 0.004	0.168 ± 0.0027
SRLVSRLGLYLS	0.656 ± 0.054	0.71 ± 0.0097	0.626 ± 0.013	0.728 ± 0.035	0.214 ± 0.0099	0.22 ± 0.022	0.475 ± 0.03	0.361 ± 0.02
SRRRRLVSKFLA	0.63 ± 0.043	0.7 ± 0.042	0.653 ± 0.027	0.729 ± 0.03	0.141 ± 0.019	0.161 ± 0.0082	0.3 ± 0.0063	0.223 ± 0.017
